Laboratory results from US20110118131A1 (published 2011).

Biological target: T1, IL-1beta (UniProt P01584 117-269)
T1 construct: also called IL-1β
Test: Biacore

Binder | binding result | fold difference in affinity vs parental [fold]
XPA23 Fab, heavy chain P53F (Fab, V domains shown) VH: EVQLLESGGGLVQPGGSLRLSCAASGFTFSKYFMFWVRQAPGKGLEWVSVISFSGGMTRYADSVKGRFTISRDNSKNTLYLQMNSLRAEDTAVYYCARVGYGGNSDYWGQGTLVTVSS VL: DIQMTQSPSSVSASVGDRLTIICRASQDINRWLAWYQQTPGNAPKLLIHSATSLQSGVPSRFSGSGSGTDFTLTINSLQPEDFATYYCQQADSFPLTFGGGTKVEIK | – | 0.05
XPA23 Fab, heavy chain P53K (Fab, V domains shown) VH: EVQLLESGGGLVQPGGSLRLSCAASGFTFSKYFMFWVRQAPGKGLEWVSVISKSGGMTRYADSVKGRFTISRDNSKNTLYLQMNSLRAEDTAVYYCARVGYGGNSDYWGQGTLVTVSS VL: DIQMTQSPSSVSASVGDRLTIICRASQDINRWLAWYQQTPGNAPKLLIHSATSLQSGVPSRFSGSGSGTDFTLTINSLQPEDFATYYCQQADSFPLTFGGGTKVEIK | – | 0.04
XPA23 Fab, heavy chain P53N (Fab, V domains shown) VH: EVQLLESGGGLVQPGGSLRLSCAASGFTFSKYFMFWVRQAPGKGLEWVSVISNSGGMTRYADSVKGRFTISRDNSKNTLYLQMNSLRAEDTAVYYCARVGYGGNSDYWGQGTLVTVSS VL: DIQMTQSPSSVSASVGDRLTIICRASQDINRWLAWYQQTPGNAPKLLIHSATSLQSGVPSRFSGSGSGTDFTLTINSLQPEDFATYYCQQADSFPLTFGGGTKVEIK | – | 0.06
XPA23 Fab, heavy chain P53E (Fab, V domains shown) VH: EVQLLESGGGLVQPGGSLRLSCAASGFTFSKYFMFWVRQAPGKGLEWVSVISESGGMTRYADSVKGRFTISRDNSKNTLYLQMNSLRAEDTAVYYCARVGYGGNSDYWGQGTLVTVSS VL: DIQMTQSPSSVSASVGDRLTIICRASQDINRWLAWYQQTPGNAPKLLIHSATSLQSGVPSRFSGSGSGTDFTLTINSLQPEDFATYYCQQADSFPLTFGGGTKVEIK | – | 0.03

Second part, the binder after the results:

binding result | fold difference in affinity vs parental [fold] | Binder
no binding | – | XPA23 Fab, heavy chain P53D (Fab, V domains shown) VH: EVQLLESGGGLVQPGGSLRLSCAASGFTFSKYFMFWVRQAPGKGLEWVSVISDSGGMTRYADSVKGRFTISRDNSKNTLYLQMNSLRAEDTAVYYCARVGYGGNSDYWGQGTLVTVSS VL: DIQMTQSPSSVSASVGDRLTIICRASQDINRWLAWYQQTPGNAPKLLIHSATSLQSGVPSRFSGSGSGTDFTLTINSLQPEDFATYYCQQADSFPLTFGGGTKVEIK
– | 0.03 | XPA23 Fab, heavy chain P53Q (Fab, V domains shown) VH: EVQLLESGGGLVQPGGSLRLSCAASGFTFSKYFMFWVRQAPGKGLEWVSVISQSGGMTRYADSVKGRFTISRDNSKNTLYLQMNSLRAEDTAVYYCARVGYGGNSDYWGQGTLVTVSS VL: DIQMTQSPSSVSASVGDRLTIICRASQDINRWLAWYQQTPGNAPKLLIHSATSLQSGVPSRFSGSGSGTDFTLTINSLQPEDFATYYCQQADSFPLTFGGGTKVEIK
no binding | – | XPA23 Fab, heavy chain P53H (Fab, V domains shown) VH: EVQLLESGGGLVQPGGSLRLSCAASGFTFSKYFMFWVRQAPGKGLEWVSVISHSGGMTRYADSVKGRFTISRDNSKNTLYLQMNSLRAEDTAVYYCARVGYGGNSDYWGQGTLVTVSS VL: DIQMTQSPSSVSASVGDRLTIICRASQDINRWLAWYQQTPGNAPKLLIHSATSLQSGVPSRFSGSGSGTDFTLTINSLQPEDFATYYCQQADSFPLTFGGGTKVEIK
– | 0.03 | XPA23 Fab, heavy chain P53S (Fab, V domains shown) VH: EVQLLESGGGLVQPGGSLRLSCAASGFTFSKYFMFWVRQAPGKGLEWVSVISSSGGMTRYADSVKGRFTISRDNSKNTLYLQMNSLRAEDTAVYYCARVGYGGNSDYWGQGTLVTVSS VL: DIQMTQSPSSVSASVGDRLTIICRASQDINRWLAWYQQTPGNAPKLLIHSATSLQSGVPSRFSGSGSGTDFTLTINSLQPEDFATYYCQQADSFPLTFGGGTKVEIK
